*1 amine or outer side, *2 acyl side, *3 side chain or, on linkers, in order; H or OH if unused. Where no end group is shown, it is not given here. Side-chain parts run from the residue outwards. [ ]: non-standard residue; d: D form. The star is where a group is joined. C20 diacid = O=C(O)CCCCCCCCCCCCCCCCCCC(=O)*; C18 diacid = O=C(O)CCCCCCCCCCCCCCCCC(=O)*; γGlu = O=C(O)[C@H](CCC(=O)[*:2])N[*:1]; C14 diacid = O=C(O)CCCCCCCCCCCCC(=O)*; NMeI = CC[C@H](C)[C@H](NC)C(=O)O; Pentanoyl = CCCCC(=O)*; Aib = CC(C)(N)C(=O)O
B1: peptide of SEQ ID NO: 206 (peptide)
peptide: Ac-IVLSLD[dV]PIKLK([γGlu-C20 diacid])KILLEQEKQKKQREQAETN[Aib]QILAQV-NH2
SMILES: CC[C@H](C)[C@H](NC(C)=O)C(=O)N[C@H](C(=O)N[C@@H](CC(C)C)C(=O)N[C@@H](CO)C(=O)N[C@@H](CC(C)C)C(=O)N[C@@H](CC(=O)O)C(=O)N[C@@H](C(=O)N1CCC[C@H]1C(=O)N[C@H](C(=O)N[C@@H](CCCCN)C(=O)N[C@@H](CC(C)C)C(=O)N[C@@H](CCCCNC(=O)CC[C@H](NC(=O)CCCCCCCCCCCCCCCCCCC(=O)O)C(=O)O)C(=O)N[C@@H](CCCCN)C(=O)N[C@H](C(=O)N[C@@H](CC(C)C)C(=O)N[C@@H](CC(C)C)C(=O)N[C@@H](CCC(=O)O)C(=O)N[C@@H](CCC(N)=O)C(=O)N[C@@H](CCC(=O)O)C(=O)N[C@@H](CCCCN)C(=O)N[C@@H](CCC(N)=O)C(=O)N[C@@H](CCCCN)C(=O)N[C@@H](CCCCN)C(=O)N[C@@H](CCC(N)=O)C(=O)N[C@@H](CCCNC(=N)N)C(=O)N[C@@H](CCC(=O)O)C(=O)N[C@@H](CCC(N)=O)C(=O)N[C@@H](C)C(=O)N[C@@H](CCC(=O)O)C(=O)N[C@H](C(=O)N[C@@H](CC(N)=O)C(=O)NC(C)(C)C(=O)N[C@@H](CCC(N)=O)C(=O)N[C@H](C(=O)N[C@@H](CC(C)C)C(=O)N[C@@H](C)C(=O)N[C@@H](CCC(N)=O)C(=O)N[C@H](C(N)=O)C(C)C)[C@@H](C)CC)[C@@H](C)O)[C@@H](C)CC)[C@@H](C)CC)C(C)C)C(C)C
B2: peptide of SEQ ID NO: 189 (peptide)
peptide: Ac-IVLSLD[dV]PIKLK([γGlu-C18 diacid])KILLEQEKQKAQREQAETN[Aib]QILAQV-NH2
SMILES: CC[C@H](C)[C@H](NC(C)=O)C(=O)N[C@H](C(=O)N[C@@H](CC(C)C)C(=O)N[C@@H](CO)C(=O)N[C@@H](CC(C)C)C(=O)N[C@@H](CC(=O)O)C(=O)N[C@@H](C(=O)N1CCC[C@H]1C(=O)N[C@H](C(=O)N[C@@H](CCCCN)C(=O)N[C@@H](CC(C)C)C(=O)N[C@@H](CCCCNC(=O)CC[C@H](NC(=O)CCCCCCCCCCCCCCCCC(=O)O)C(=O)O)C(=O)N[C@@H](CCCCN)C(=O)N[C@H](C(=O)N[C@@H](CC(C)C)C(=O)N[C@@H](CC(C)C)C(=O)N[C@@H](CCC(=O)O)C(=O)N[C@@H](CCC(N)=O)C(=O)N[C@@H](CCC(=O)O)C(=O)N[C@@H](CCCCN)C(=O)N[C@@H](CCC(N)=O)C(=O)N[C@@H](CCCCN)C(=O)N[C@@H](C)C(=O)N[C@@H](CCC(N)=O)C(=O)N[C@@H](CCCNC(=N)N)C(=O)N[C@@H](CCC(=O)O)C(=O)N[C@@H](CCC(N)=O)C(=O)N[C@@H](C)C(=O)N[C@@H](CCC(=O)O)C(=O)N[C@H](C(=O)N[C@@H](CC(N)=O)C(=O)NC(C)(C)C(=O)N[C@@H](CCC(N)=O)C(=O)N[C@H](C(=O)N[C@@H](CC(C)C)C(=O)N[C@@H](C)C(=O)N[C@@H](CCC(N)=O)C(=O)N[C@H](C(N)=O)C(C)C)[C@@H](C)CC)[C@@H](C)O)[C@@H](C)CC)[C@@H](C)CC)C(C)C)C(C)C
B3: peptide of SEQ ID NO: 215 (peptide)
peptide: [NMeI]VLSLD[dV]PIKLK([γGlu-C20 diacid])KILLEQEKQK[Aib]QREQAETN[Aib]QILAQV-NH2
modifications: N-terminus assumed
SMILES: CC[C@H](C)[C@H](NC)C(=O)N[C@H](C(=O)N[C@@H](CC(C)C)C(=O)N[C@@H](CO)C(=O)N[C@@H](CC(C)C)C(=O)N[C@@H](CC(=O)O)C(=O)N[C@@H](C(=O)N1CCC[C@H]1C(=O)N[C@H](C(=O)N[C@@H](CCCCN)C(=O)N[C@@H](CC(C)C)C(=O)N[C@@H](CCCCNC(=O)CC[C@H](NC(=O)CCCCCCCCCCCCCCCCCCC(=O)O)C(=O)O)C(=O)N[C@@H](CCCCN)C(=O)N[C@H](C(=O)N[C@@H](CC(C)C)C(=O)N[C@@H](CC(C)C)C(=O)N[C@@H](CCC(=O)O)C(=O)N[C@@H](CCC(N)=O)C(=O)N[C@@H](CCC(=O)O)C(=O)N[C@@H](CCCCN)C(=O)N[C@@H](CCC(N)=O)C(=O)N[C@@H](CCCCN)C(=O)NC(C)(C)C(=O)N[C@@H](CCC(N)=O)C(=O)N[C@@H](CCCNC(=N)N)C(=O)N[C@@H](CCC(=O)O)C(=O)N[C@@H](CCC(N)=O)C(=O)N[C@@H](C)C(=O)N[C@@H](CCC(=O)O)C(=O)N[C@H](C(=O)N[C@@H](CC(N)=O)C(=O)NC(C)(C)C(=O)N[C@@H](CCC(N)=O)C(=O)N[C@H](C(=O)N[C@@H](CC(C)C)C(=O)N[C@@H](C)C(=O)N[C@@H](CCC(N)=O)C(=O)N[C@H](C(N)=O)C(C)C)[C@@H](C)CC)[C@@H](C)O)[C@@H](C)CC)[C@@H](C)CC)C(C)C)C(C)C
B4: peptide of SEQ ID NO: 145 (peptide)
peptide: [NMeI]VLSLD[dV]PIKLK([γGlu-C18 diacid])KILLEQEKQK[Aib]QREQAETN[Aib]QILAQV-NH2
modifications: N-terminus assumed
SMILES: CC[C@H](C)[C@H](NC)C(=O)N[C@H](C(=O)N[C@@H](CC(C)C)C(=O)N[C@@H](CO)C(=O)N[C@@H](CC(C)C)C(=O)N[C@@H](CC(=O)O)C(=O)N[C@@H](C(=O)N1CCC[C@H]1C(=O)N[C@H](C(=O)N[C@@H](CCCCN)C(=O)N[C@@H](CC(C)C)C(=O)N[C@@H](CCCCNC(=O)CC[C@H](NC(=O)CCCCCCCCCCCCCCCCC(=O)O)C(=O)O)C(=O)N[C@@H](CCCCN)C(=O)N[C@H](C(=O)N[C@@H](CC(C)C)C(=O)N[C@@H](CC(C)C)C(=O)N[C@@H](CCC(=O)O)C(=O)N[C@@H](CCC(N)=O)C(=O)N[C@@H](CCC(=O)O)C(=O)N[C@@H](CCCCN)C(=O)N[C@@H](CCC(N)=O)C(=O)N[C@@H](CCCCN)C(=O)NC(C)(C)C(=O)N[C@@H](CCC(N)=O)C(=O)N[C@@H](CCCNC(=N)N)C(=O)N[C@@H](CCC(=O)O)C(=O)N[C@@H](CCC(N)=O)C(=O)N[C@@H](C)C(=O)N[C@@H](CCC(=O)O)C(=O)N[C@H](C(=O)N[C@@H](CC(N)=O)C(=O)NC(C)(C)C(=O)N[C@@H](CCC(N)=O)C(=O)N[C@H](C(=O)N[C@@H](CC(C)C)C(=O)N[C@@H](C)C(=O)N[C@@H](CCC(N)=O)C(=O)N[C@H](C(N)=O)C(C)C)[C@@H](C)CC)[C@@H](C)O)[C@@H](C)CC)[C@@H](C)CC)C(C)C)C(C)C
B5: peptide of SEQ ID NO: 144 (peptide)
peptide: [NMeI]VLSLD[dV]PIKLK([γGlu-C18 diacid])KILLEQEKQKAQREQAETN[Aib]QILAQV-NH2
modifications: N-terminus assumed
SMILES: CC[C@H](C)[C@H](NC)C(=O)N[C@H](C(=O)N[C@@H](CC(C)C)C(=O)N[C@@H](CO)C(=O)N[C@@H](CC(C)C)C(=O)N[C@@H](CC(=O)O)C(=O)N[C@@H](C(=O)N1CCC[C@H]1C(=O)N[C@H](C(=O)N[C@@H](CCCCN)C(=O)N[C@@H](CC(C)C)C(=O)N[C@@H](CCCCNC(=O)CC[C@H](NC(=O)CCCCCCCCCCCCCCCCC(=O)O)C(=O)O)C(=O)N[C@@H](CCCCN)C(=O)N[C@H](C(=O)N[C@@H](CC(C)C)C(=O)N[C@@H](CC(C)C)C(=O)N[C@@H](CCC(=O)O)C(=O)N[C@@H](CCC(N)=O)C(=O)N[C@@H](CCC(=O)O)C(=O)N[C@@H](CCCCN)C(=O)N[C@@H](CCC(N)=O)C(=O)N[C@@H](CCCCN)C(=O)N[C@@H](C)C(=O)N[C@@H](CCC(N)=O)C(=O)N[C@@H](CCCNC(=N)N)C(=O)N[C@@H](CCC(=O)O)C(=O)N[C@@H](CCC(N)=O)C(=O)N[C@@H](C)C(=O)N[C@@H](CCC(=O)O)C(=O)N[C@H](C(=O)N[C@@H](CC(N)=O)C(=O)NC(C)(C)C(=O)N[C@@H](CCC(N)=O)C(=O)N[C@H](C(=O)N[C@@H](CC(C)C)C(=O)N[C@@H](C)C(=O)N[C@@H](CCC(N)=O)C(=O)N[C@H](C(N)=O)C(C)C)[C@@H](C)CC)[C@@H](C)O)[C@@H](C)CC)[C@@H](C)CC)C(C)C)C(C)C
B6: peptide of SEQ ID NO: 212 (peptide)
peptide: Ac-IVLSLD[dV]PIKLK([γGlu-C20 diacid])KILLEQEKQKAQREQAETN[Aib]QILAQV-NH2
SMILES: CC[C@H](C)[C@H](NC(C)=O)C(=O)N[C@H](C(=O)N[C@@H](CC(C)C)C(=O)N[C@@H](CO)C(=O)N[C@@H](CC(C)C)C(=O)N[C@@H](CC(=O)O)C(=O)N[C@@H](C(=O)N1CCC[C@H]1C(=O)N[C@H](C(=O)N[C@@H](CCCCN)C(=O)N[C@@H](CC(C)C)C(=O)N[C@@H](CCCCNC(=O)CC[C@H](NC(=O)CCCCCCCCCCCCCCCCCCC(=O)O)C(=O)O)C(=O)N[C@@H](CCCCN)C(=O)N[C@H](C(=O)N[C@@H](CC(C)C)C(=O)N[C@@H](CC(C)C)C(=O)N[C@@H](CCC(=O)O)C(=O)N[C@@H](CCC(N)=O)C(=O)N[C@@H](CCC(=O)O)C(=O)N[C@@H](CCCCN)C(=O)N[C@@H](CCC(N)=O)C(=O)N[C@@H](CCCCN)C(=O)N[C@@H](C)C(=O)N[C@@H](CCC(N)=O)C(=O)N[C@@H](CCCNC(=N)N)C(=O)N[C@@H](CCC(=O)O)C(=O)N[C@@H](CCC(N)=O)C(=O)N[C@@H](C)C(=O)N[C@@H](CCC(=O)O)C(=O)N[C@H](C(=O)N[C@@H](CC(N)=O)C(=O)NC(C)(C)C(=O)N[C@@H](CCC(N)=O)C(=O)N[C@H](C(=O)N[C@@H](CC(C)C)C(=O)N[C@@H](C)C(=O)N[C@@H](CCC(N)=O)C(=O)N[C@H](C(N)=O)C(C)C)[C@@H](C)CC)[C@@H](C)O)[C@@H](C)CC)[C@@H](C)CC)C(C)C)C(C)C

Biological target: Rat CRF2 a (corticotropin-releasing factor receptor 2), on the A7R5 rat aortic smooth muscle cell line (rat, UniProt P47866 20-411)
Sequence (P47866 20-411): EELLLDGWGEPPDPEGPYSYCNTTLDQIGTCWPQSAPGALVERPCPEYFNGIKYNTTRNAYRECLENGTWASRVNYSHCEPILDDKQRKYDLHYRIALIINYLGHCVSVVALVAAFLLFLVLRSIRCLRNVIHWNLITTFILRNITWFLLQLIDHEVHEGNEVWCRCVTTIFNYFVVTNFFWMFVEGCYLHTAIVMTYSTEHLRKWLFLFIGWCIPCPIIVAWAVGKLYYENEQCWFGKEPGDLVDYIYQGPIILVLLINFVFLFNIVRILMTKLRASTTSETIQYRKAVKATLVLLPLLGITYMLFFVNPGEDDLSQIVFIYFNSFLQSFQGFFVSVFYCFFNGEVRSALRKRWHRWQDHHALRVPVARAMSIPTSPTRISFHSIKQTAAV
Assay: cell-based or functional assay

Row | Binder | EC50 [nM] 0% HSA (cAMP, A7R5 rat aortic smooth muscle cells)
1 | B1 | 0.06 nM
2 | [NMeI]VLSLD[dV]PIKLK([γGlu-C14 diacid])KILLEQEKQKKQREQAETN[Aib]QILAQV-NH2 [peptide of SEQ ID NO: 87] | 0.32 nM
3 | B2 | 0.15 nM
4 | B3 | 0.04 nM
5 | B4 | 0.05 nM
6 | B5 | 0.06 nM
7 | Pentanoyl-VLSLD[dV]PIKLK([γGlu-C14 diacid])KILLEQEKQKKQREQAETN[Aib]QILAQV-NH2 [peptide of SEQ ID NO: 86] | 0.68 nM
8 | B6 | 0.08 nM
